Source: PMC10172135

Experiments:
[1] = molecular target: orange carotenoid protein OCP1 from Synechocystis sp. PCC 6803 (Synechocystis sp. PCC 6803)
[2] = molecular target: FRP-like protein (FRPL) from Pseudomonas borbori (Pseudomonas borbori); assay: native MS; 4 µM (monomer) in 200 mM ammonium acetate pH 6.8, Q Exactive, positive ion mode

| Substance | acceleration of OCP1’s recovery from photoconversion (20 °C, equimolar ratio of OCP1 to FRPL), compared to OCP1 alone [1] [%] | stoichiometry N [2] |
| --- | --- | --- |
| FRPL from a delta-proteobacterium of the Desulfobacteraceae family (natural protein) | 93 |  |
| FRP-like protein (FRPL) from Pseudomonas borbori (natural protein) |  | 2 |
